Assay results as given in paper PMC3257258, “Characterization of a Novel Association between Two Trypanosome-Specific Proteins and 5S rRNA”.

T1: P37 (Trypanosoma brucei, UniProt O15759 1-279)
T1 sequence: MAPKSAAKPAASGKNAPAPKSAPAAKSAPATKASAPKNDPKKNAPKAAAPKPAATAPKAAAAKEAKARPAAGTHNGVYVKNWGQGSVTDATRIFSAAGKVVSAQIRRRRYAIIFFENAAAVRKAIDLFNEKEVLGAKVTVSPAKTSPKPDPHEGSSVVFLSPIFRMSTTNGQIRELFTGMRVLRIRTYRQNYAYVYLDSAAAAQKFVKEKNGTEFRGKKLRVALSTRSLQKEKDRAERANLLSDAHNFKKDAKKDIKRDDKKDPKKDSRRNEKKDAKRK

T2: P34 (Trypanosoma brucei, UniProt O15758 1-262)
T2 sequence: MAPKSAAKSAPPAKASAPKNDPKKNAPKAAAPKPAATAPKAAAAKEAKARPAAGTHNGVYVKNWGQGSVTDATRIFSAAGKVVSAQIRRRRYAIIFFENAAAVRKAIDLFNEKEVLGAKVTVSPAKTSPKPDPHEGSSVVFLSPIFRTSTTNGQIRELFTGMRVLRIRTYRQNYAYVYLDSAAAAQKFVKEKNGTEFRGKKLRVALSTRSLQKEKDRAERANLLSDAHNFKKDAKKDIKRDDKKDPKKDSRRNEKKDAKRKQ

B1: 5S rRNA deltaU (U43A) (structured_RNA)
RNA: GGGUACGACCAUACUUGGCCGAAUGCACCAUAUCCCGUCCGAAUUGUGAAGUUAAGCGGCCACAGGCCUCGUUAGUACGGCGAUCAGUGAUGGCGCUGGAACCCGGGGUGUUGUACUCU

Tests used:
P37 [1] = target: T1, P37; experiment: filter binding; similar to wild type, data not shown; Filter binding: 10 mM Tris pH 7.4, 1 mM EDTA, 100 mM NaCl, 0.1% NP-40, 100 ug/mL BSA, RT 20 min; EMSA/competition/RNase H protection: 10 mM Tris-HCl pH 7.4, 150 mM KCl, 0.1 mM DTT, 0.1 mM EDTA, 0.1% NP-40, RT 20 min; settings: protein: recombinant; tags: His (pQE-1); label: 32P-UTP (body)
P34 [2] = target: T2, P34; experiment: filter binding; no significant difference from wild type (one text sentence says P37; legend and assay say P34); Filter binding: 10 mM Tris pH 7.4, 1 mM EDTA, 100 mM NaCl, 0.1% NP-40, 100 ug/mL BSA, RT 20 min; EMSA/competition/RNase H protection: 10 mM Tris-HCl pH 7.4, 150 mM KCl, 0.1 mM DTT, 0.1 mM EDTA, 0.1% NP-40, RT 20 min; settings: protein: recombinant; tags: His (pQE-1); label: 32P-UTP (body)
P34 [3] = target: T2, P34; experiment: competition; competes 5S rRNA at 100-1000 ng; Filter binding: 10 mM Tris pH 7.4, 1 mM EDTA, 100 mM NaCl, 0.1% NP-40, 100 ug/mL BSA, RT 20 min; EMSA/competition/RNase H protection: 10 mM Tris-HCl pH 7.4, 150 mM KCl, 0.1 mM DTT, 0.1 mM EDTA, 0.1% NP-40, RT 20 min; settings: protein: recombinant; tags: His (pQE-1); hairpin
P37 [4] = target: T1, P37; experiment: competition; competes 5S rRNA at 100-1000 ng, somewhat better than for P34; Filter binding: 10 mM Tris pH 7.4, 1 mM EDTA, 100 mM NaCl, 0.1% NP-40, 100 ug/mL BSA, RT 20 min; EMSA/competition/RNase H protection: 10 mM Tris-HCl pH 7.4, 150 mM KCl, 0.1 mM DTT, 0.1 mM EDTA, 0.1% NP-40, RT 20 min; settings: protein: recombinant; tags: His (pQE-1); hairpin

Binder	binding result (P37 [1])	binding result (P34 [2])	binding result (P34 [3])	binding result (P37 [4])
B1	binds	binds		
GCGGGGUGCCAUACUUACAGGCCUCGC (structured_RNA) [LoopA/StemV]			binds	binds
